The values below come from paper PMC10321576 (2023).

Sequences and labels used below:
B1: KDM7B (PHF8, JHDM1F) dual domain (PHD-JmjC) (domain or fragment)
chain: MASVPVYCLCRLPYDVTRFMIECDMCQDWFHGSCVGVEEEKAADIDLYHCPNCEVLHGPSIMKKRRGSSKGHDTHKGKPVKTGSPTFVRELRSRTFDSSDEVILKPTGNQLTVEFLEENSFSVPILVLKKDGLGMTLPSPSFTVRDVEHYVGSDKEIDVIDVTRQADCKMKLGDFVKYYYSGKREKVLNVISLEFSDTRLSNLVETPKIVRKLSWVENLWPEECVFERPNVQKYCLMSVRDSYTDFHIDFGGTSVWYHVLKGEKIFYLIRPTNANLTLFECWSSSSNQNEMFFGDQVDKCYKCSVKQGQTLFIPTGWIHAVLTPVDCLAFGGNFLHSLNIEMQLKAYEIEKRLSTADLFRFPNFETICWYVGKHILDIFRGLRENRRHPASYLVHGGKALNLAFRAWTRKEALPDHEDEIPETVRTVQLIKDLAREIRLVEDIFQQN

Bridge positions count the residues as written; N and C are the ends. Square brackets hold non-standard residues; d marks the D form. Ends that are not written are not given here. Lys(Me3) = C[N+](C)(C)CCCC[C@H](N)C(=O)O

For assay [1], the target named is T1, KDM7B PHD-finger (UniProt Q9UPP1-2 1-447).
T1 chain: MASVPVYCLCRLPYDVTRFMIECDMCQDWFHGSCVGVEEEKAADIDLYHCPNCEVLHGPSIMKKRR

Another assay deals with OC3. In words: ITC.
Assay [2] has as its target T2, KDM7A (KIAA1718) PHD-finger.
T2 chain: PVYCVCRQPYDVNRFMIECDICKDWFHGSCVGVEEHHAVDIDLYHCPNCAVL
In words: ITC. A general note: ITC needs no label: the signal is the heat of the interaction.

The target in assay [3] is KDM7A (KIAA1718) dual domain. In words: ITC.
Chain of KDM7A (KIAA1718) dual domain (chain, as listed by the source): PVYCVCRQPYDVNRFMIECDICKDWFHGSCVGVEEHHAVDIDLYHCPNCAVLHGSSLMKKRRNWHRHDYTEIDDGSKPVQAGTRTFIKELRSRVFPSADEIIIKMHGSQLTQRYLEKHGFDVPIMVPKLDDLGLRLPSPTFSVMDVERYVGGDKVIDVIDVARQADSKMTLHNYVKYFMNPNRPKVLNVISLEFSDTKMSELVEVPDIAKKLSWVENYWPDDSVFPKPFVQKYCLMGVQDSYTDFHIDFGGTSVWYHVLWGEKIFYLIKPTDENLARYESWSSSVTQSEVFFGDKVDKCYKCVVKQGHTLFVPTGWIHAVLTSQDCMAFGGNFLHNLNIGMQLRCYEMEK
Assay [4] has as its target T2, KDM7A (KIAA1718) PHD-finger. Description: BLI. On the technique in general: Biolayer interferometry detects binding as a change in optical thickness at a sensor tip.
The target in assay [5] is T3, TAF3 PHD-finger.
T3 chain: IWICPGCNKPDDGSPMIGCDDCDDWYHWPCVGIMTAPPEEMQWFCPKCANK
Description: BLI.

Another assay deals with T4, DIDO1 PHD-finger.
T4 chain: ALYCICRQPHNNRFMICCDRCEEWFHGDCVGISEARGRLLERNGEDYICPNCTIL
Description: BLI.

In assay [6] the target is T5, ING2 PHD-finger.
T5 chain: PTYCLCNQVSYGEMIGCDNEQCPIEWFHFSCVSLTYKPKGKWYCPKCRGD
In words: BLI.

Assay [7] addresses KDM7A (KIAA1718) dual domain. In words: BLI.
For assay [8], the target named is T6, KDM7C (PHF2) PHD-finger.
T6 chain: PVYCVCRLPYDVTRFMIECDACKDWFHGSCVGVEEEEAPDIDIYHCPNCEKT
Description: BLI.

Assay [9] has as its target SPIN1 triple tudor domain. Description: BLI.
The target in assay [10] is T1, KDM7B PHD-finger. Description: ITC; His-Trx-tagged PHD.
Assay [11] deals with T2, KDM7A (KIAA1718) PHD-finger.
Assay [12] has as its target T3, TAF3 PHD-finger.
The target of another assay is T7, KDM5A PHD3 PHD-finger.
T7 chain: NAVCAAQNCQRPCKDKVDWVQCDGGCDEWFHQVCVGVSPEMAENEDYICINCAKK

For assay [13], the target named is T5, ING2 PHD-finger.
Assay [14] addresses B1.
Assay [15] concerns the target KDM7A (KIAA1718) dual domain.
The target in assay [16] is T6, KDM7C (PHF2) PHD-finger.
The target of assay [17] is SPIN1 triple tudor domain.
Chain of SPIN1 triple tudor domain (chain, as listed by the source): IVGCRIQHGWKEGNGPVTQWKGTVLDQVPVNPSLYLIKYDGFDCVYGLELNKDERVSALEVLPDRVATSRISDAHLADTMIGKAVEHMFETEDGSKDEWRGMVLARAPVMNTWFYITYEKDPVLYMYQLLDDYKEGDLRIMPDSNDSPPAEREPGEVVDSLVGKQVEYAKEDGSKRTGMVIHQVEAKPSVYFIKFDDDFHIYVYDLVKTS
For assay [18], the target named is T2, KDM7A (KIAA1718) PHD-finger. In words: ITC.

In the assay with KDM7B PHD-finger [1], YYLTHPYPS[Lys(Me3)]FRTC (ends and bridges not checked) [OC9 V10Kme3] had an IC50 of 234 nM.

As to YYLT[dA]PYPSVFRTC (ends and bridges not checked) [OC9 with H5 replaced with D-alanine], the IC50 with KDM7B PHD-finger [1] amounted to 20 nM.

Regarding YYL[dA]HPYPSVFRTC (ends and bridges not checked) [OC9 with T4 replaced with D-alanine], half-maximal inhibition with KDM7B PHD-finger [1] (IC50) required 45 nM.

B1 showed a Kd in the assay with OC3 of 163 nM.

Regarding {CH2CO}-YYLTHPYPSVFRTC (thioether N-14) [OC9, de novo cyclic peptide from mRNA display], the Kd in [2] is 31.6 nM; in [3] it was 31.6 nM; in [4], 20 nM; with TAF3 PHD-finger [5] it was above 1000 nM; with DIDO1 PHD-finger, above 1000 nM; with ING2 PHD-finger [6], above 1000 nM. Moreover, the Kd was 39.8 nM in assay [7]; 1 nM with KDM7C (PHF2) PHD-finger [8]; above 1000 nM in assay [9]; 8 nM with KDM7B PHD-finger [10]; 33 nM in assay [18]. In addition, the IC50 in [11] is 63.1 nM; in the assay with TAF3 PHD-finger [12], above 5010 nM; with KDM5A PHD3 PHD-finger it was above 5010 nM; with ING2 PHD-finger [13], above 5010 nM; in assay [14], 100 nM; in [15] it was 126 nM. Besides, the results for the IC50 (with KDM7C (PHF2) PHD-finger [16]; in assay [17]) were 25.1 nM and above 2000 nM, respectively.

What is called IC50 is the midpoint of a concentration-inhibition curve. The Kd is the concentration at which binding is half-saturated.
